Reference: patent publication US20030175888

Legend:
LnmP PCP (holo-form) = target: T1, LnmP PCP (holo-form)
T1 chain: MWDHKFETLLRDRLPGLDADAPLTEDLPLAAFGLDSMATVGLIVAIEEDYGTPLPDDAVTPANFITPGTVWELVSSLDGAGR

B1: LnmG (protein)
chain: MVALVFPGQGSQRKGMGADLFARFPDLTRQADTVLGHSVEELCRSSGDGRLDRTEYAQPALFVVSALSYLARDPGLPQPTLLAGHSLGEYGALFAAGCFDFATGVRLVRERGALMGRAQGGGMLAVLGVDGDEVQALLAGTGARQVDVANYNTPTQTVLSGPLDELRMVSAALGQRPGVRCVPVRVSAAFHSRHMRPAAQEFATFLTGFSFADPHRTVISSVTARPYGAGQVAELLSRQIESPVRWSETMAYLRERGTTELEEMGPGKVLTGLWKQGRADGAKARAVAPAPVAVVAGVPAAAAARAPASPAPVAARAATAAPARPSDPAPPAPRTAPSPASPVPPASVSRGQRAEELGSAEFRQDYGIRYAYLAGAMFRGIASAELVIRMGRAGLMGFFGAGGLGLDKVESALVRIKDALGPDGRYGMNLLHSIDDPAYEHAVVDLCLKHGVHDVEAAGFTQLTPAVVQFRFSGAHRDAAGRAVAVRRVLAKVSRPEVAAAFMAPAPAAILRRLTADGRLTPQEAEIAAELPVGQDICVEADSGGHTDGGAALTLLPSMIRHRDAAMARHGYGRRIRIGAAGGIGAPEAVAAAFVLGADFVLTGSVNQCSPEAGTSDAVKDILAGLDVQDTAYAPAGDMFEIGARVQVVRKGTLFAARGNKLYQLYRSHDSWESIDAGTRRSVEETYFKRPFAEVWEETRAYHLGRGRDAEIEKADRLPKHRMALAFRWYFARSVRWGLEGEPTQKVNYQIQCGPAIGAFNHVVRGTGLEDWRHRHVDLIAEHLMTGAADVLARR
LnmJ-ACP5 (holo-form)
  loading of the [2-14C]malonyl group onto the holo-ACP (SDS-PAGE and phosphor imaging, 5 min): six of the seven ACPs were efficiently loaded with the malonyl group (FIG. 13C, lanes 2-4 and 6-8)
LnmJ-ACP4 (holo-form)
  loading of the [2-14C]malonyl group onto the holo-ACP (SDS-PAGE and phosphor imaging, 5 min): six of the seven ACPs were efficiently loaded with the malonyl group (FIG. 13C, lanes 2-4 and 6-8)
LnmI-ACP3 (holo-form)
  loading of the [2-14C]malonyl group onto the holo-ACP (SDS-PAGE and phosphor imaging, 5 min): six of the seven ACPs were efficiently loaded with the malonyl group (FIG. 13C, lanes 2-4 and 6-8)
LnmP PCP (holo-form)
  loading of the [2-14C]malonyl group onto the holo-PCP (SDS-PAGE and phosphor imaging, 5 min): no loading was observed for the LnmP PCP (FIG. 13C, lane 9)
LnmJ-ACP7 (holo-form)
  loading of the [2-14C]malonyl group onto the holo-ACP (SDS-PAGE and phosphor imaging, 5 min): six of the seven ACPs were efficiently loaded with the malonyl group (FIG. 13C, lanes 2-4 and 6-8)
LnmJ-ACP8 (holo-form)
  loading of the [2-14C]malonyl group onto the holo-ACP (SDS-PAGE and phosphor imaging, 5 min): six of the seven ACPs were efficiently loaded with the malonyl group (FIG. 13C, lanes 2-4 and 6-8)
apo-LnmJ-(DH-ACP-KR)
  loading of the [2-14C]malonyl group onto the tridomain protein (9% SDS-PAGE and phosphor imaging): no loading was observed with the apo-LnmJ-(DH-ACP-KR) protein (lane 2)
LnmJ-ACP6-2 (holo-form)
  loading of the [2-14C]malonyl group onto the holo-ACP (SDS-PAGE and phosphor imaging, 5 min): six of the seven ACPs were efficiently loaded with the malonyl group (FIG. 13C, lanes 2-4 and 6-8)
  malonyl loading of the two ACPs of PKS module 6 in vitro: LnmG prefers ACP6-2 in vitro
LnmJ-ACP6-1 (holo-form)
  loading of the [2-14C]malonyl group onto the holo-ACP (SDS-PAGE and phosphor imaging, 5 min): with ACP6-1 being loaded less efficiently (FIG. 13C, lane 5)
holo-LnmJ-(DH-ACP-KR)
  loading of the [2-14C]malonyl group onto the tridomain protein (9% SDS-PAGE and phosphor imaging, 2 to 60 min): LnmG efficiently loaded the malonyl group to holo-LnmJ-(DH-ACP-KR) (lanes 3-6)
